Source: paper PMC10188207
Values belong to the substance of their own block, whether it stands above or below them.

Assays:
[1] = molecular target: FoxP1 ZIP(A356C)-lin labeled with BODIPY FL (human) (UniProt Q9H334); test: fluorescence polarisation; fluorescence anisotropy; 5 nM BODIPY FL-labeled single-cysteine protein titrated with its unlabeled wild-type construct (0-5000 nM ZIP-lin, 0-200 nM ZIP-lin-FKH), 37 °C; two-state model, monomer-dimer equilibrium; duplicates
[2] = molecular target: FoxP1 ZIP-lin (leucine zipper domain with the linker, residues 342-462), unlabeled wild type (human) (UniProt Q9H334); test: SEC; Superdex 75 increase, 20 mM HEPES pH 7.8, 150 mM NaCl; unlabeled protein at 10 µM; molecular weight from a calibration curve with known proteins
[3] = molecular target: FoxP1 ZIP(A356C)-lin-FKH labeled with BODIPY FL (human) (UniProt Q9H334); test: fluorescence polarisation; fluorescence anisotropy; 5 nM BODIPY FL-labeled single-cysteine protein titrated with its unlabeled wild-type construct (0-5000 nM ZIP-lin, 0-200 nM ZIP-lin-FKH), 37 °C; two-state model, monomer-dimer equilibrium; duplicates
[4] = molecular target: FoxP1 ZIP(A356C)-lin-FKH labeled with BODIPY FL (human) (UniProt Q9H334); test: fluorescence polarisation; fluorescence anisotropy; 5 nM labeled monomer preincubated with 10 nM unlabeled DNA, then titrated with unlabeled wild-type ZIP-lin-FKH that was previously denatured to ensure the monomeric form; apparent KD; monomer-dimer equilibrium
[5] = molecular target: FoxP1 ZIP-lin-FKH (leucine zipper, linker and Forkhead domain, residues 342-548), unlabeled wild type (human) (UniProt Q9H334); test: SEC; Superdex 75 increase, 20 mM HEPES pH 7.8, 150 mM NaCl; unlabeled protein at 10 µM; molecular weight from a calibration curve with known proteins
[6] = test system: FoxP1 ZIP-lin-FKH (human); test: fluorescence anisotropy; details: 200 nM labeled DNA, protein 0-500 nM; 'standard buffer' (composition, salt and pH not in material); dimerization assays at 37 C, DNA-binding temperature not stated; ex 480 nm, em 525 nm
[7] = test system: FoxP1 FKH domain (human); test: fluorescence anisotropy; details: 200 nM labeled DNA, protein 0-500 nM; 'standard buffer' (composition, salt and pH not in material); dimerization assays at 37 C, DNA-binding temperature not stated; ex 480 nm, em 525 nm

Kd [1]: 0.123 µM | stoichiometry N [2]: 2
Substance: FoxP1 ZIP-lin (leucine zipper domain with the linker, residues 342-462), unlabeled wild type (from UniProt Q9H334 342-462) (domain or fragment)

Kd [3]: 0.029 µM | Kd [4]: 0.055 µM | stoichiometry N [5]: 2
Substance: FoxP1 ZIP-lin-FKH (leucine zipper, linker and Forkhead domain, residues 342-548), unlabeled wild type (from UniProt Q9H334 342-548) (domain or fragment)

Substance: FoxP1 FKH cognate DNA, Alexa488-labeled
Kd [6]: 0.17 µM | Kd [7]: 0.176 µM
